Experimental data as given in patent publication CN108314731A (ZHUHAI TAINUO MAIBO BIOTECHNOLOGY CO LTD; GUANGZHOU …, dated 2018).

Biological target: 破伤风类毒素 (tetanus toxoid) (破伤风杆菌 (Clostridium tetani), UniProt P04958 2-1315)
Sequence (P04958 2-457 limits assumed, chain 1 of 2): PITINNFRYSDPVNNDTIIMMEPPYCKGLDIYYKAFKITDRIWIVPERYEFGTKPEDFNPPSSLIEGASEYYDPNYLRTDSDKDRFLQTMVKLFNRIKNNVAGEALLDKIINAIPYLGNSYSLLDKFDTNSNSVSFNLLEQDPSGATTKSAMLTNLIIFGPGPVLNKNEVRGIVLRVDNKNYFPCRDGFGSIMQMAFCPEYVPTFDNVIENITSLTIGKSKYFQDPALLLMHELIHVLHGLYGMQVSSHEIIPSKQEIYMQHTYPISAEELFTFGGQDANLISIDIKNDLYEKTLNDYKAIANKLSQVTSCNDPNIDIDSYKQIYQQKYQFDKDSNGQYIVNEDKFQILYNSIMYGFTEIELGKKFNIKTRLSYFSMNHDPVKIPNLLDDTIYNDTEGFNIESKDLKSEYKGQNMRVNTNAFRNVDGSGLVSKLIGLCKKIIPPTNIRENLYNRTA
Sequence (P04958 458-1315 limits assumed, chain 2 of 2): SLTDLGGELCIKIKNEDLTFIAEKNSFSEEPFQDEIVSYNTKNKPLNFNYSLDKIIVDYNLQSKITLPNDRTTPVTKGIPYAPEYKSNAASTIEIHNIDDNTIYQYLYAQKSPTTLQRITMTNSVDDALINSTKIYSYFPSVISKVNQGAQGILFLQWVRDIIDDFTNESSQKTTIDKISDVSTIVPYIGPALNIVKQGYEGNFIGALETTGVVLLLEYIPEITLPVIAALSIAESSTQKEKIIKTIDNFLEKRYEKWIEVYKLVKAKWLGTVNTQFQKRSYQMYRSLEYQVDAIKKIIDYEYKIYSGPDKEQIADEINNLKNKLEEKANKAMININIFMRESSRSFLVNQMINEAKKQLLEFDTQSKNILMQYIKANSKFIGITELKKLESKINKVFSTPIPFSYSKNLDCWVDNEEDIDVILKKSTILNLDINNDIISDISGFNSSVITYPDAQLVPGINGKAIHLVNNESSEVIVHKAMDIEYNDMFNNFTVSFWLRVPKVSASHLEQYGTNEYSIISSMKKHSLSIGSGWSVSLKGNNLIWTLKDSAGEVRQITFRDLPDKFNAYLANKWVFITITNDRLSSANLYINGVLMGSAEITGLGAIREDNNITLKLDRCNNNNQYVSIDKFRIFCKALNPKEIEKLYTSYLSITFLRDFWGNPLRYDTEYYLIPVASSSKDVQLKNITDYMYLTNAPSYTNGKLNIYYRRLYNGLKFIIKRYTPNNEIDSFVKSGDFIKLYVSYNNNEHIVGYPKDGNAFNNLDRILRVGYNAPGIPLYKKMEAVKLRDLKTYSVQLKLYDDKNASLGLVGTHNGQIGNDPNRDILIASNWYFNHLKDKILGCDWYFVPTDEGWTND

B1: TRN0010抗体 (全人源抗破伤风毒素中和抗体) (antibody, V domains shown)
VH: QVQLQESGPGLVKPSETLSLRCTVSGGSISSYYWSWFRQPPGKGLEWIGYVHYSGSTNYNPSLKSRFTLSVDTSKSQFSLRLRSVTAADTAIYYCARDKYQTDVSDIWGQGTVVTVSS
VL: DIQMTQSPGTLSLSPGERATLSCRASQSITSSFLAWYQQKPGQAPRLLIYGASSRATGIPDRFSGSGSGTDFILTISRLEPEDFAVYYCQQYDTSRTFGQGTTVEIK
With B1 the Kd was 3.68 nM, the koff was 0.000153 s⁻¹ and the kon was 41500 M⁻¹ s⁻¹.
